# According to the RNAGym collection of RNA variant scans (doi:10.1093/molbev/msab373):
# B1: Azoarcus group I ribozyme (parent)
# chain: GUGCCUUGCGCCGGGAAACCACGCAAGGGAUGGUGUCAAAUUCGGCGAAACCUAAGCGCCCGCCCGGGCGUAUGGCAACGCCGAGCCAAGCUUCGGCGCCUGCGCCGAUGAAGGUGUAGAGACUAGACGGCACCCACCUAAGGCAAACGCUAUGGUGAAGGCAUAGUCCAGGGAGUGGCGAAAGUCACACAAACCGG
# Variants of: B1
# Test: reverse-splicing fitness (ratio to wild type); higher = more active; in vitro selection; Mg2+ level not given
# Procedure, shortened: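 An in vitro group I ribozyme library with randomized positions was T7-transcribed and gel-purified. In triplicate, 10 pmol RNA in EPPS pH 7.5 was reacted with 50 pmoles of a 30-nt RNA substrate for 1 h at 37 °C across several added MgCl2 levels (1–48 mM), then stopped with EDTA. Products were reverse transcribed from a substrate-complementary primer, PCR-amplified and sequenced (HiSeq 4000). Fitness is a variant's read proportion after selection over that before, normalised to wild type.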
row,Variant,reverse-splicing fitness
1,GUGCCUUGCGCCGGGAAACCACGCAAGGGAUGGUGUCAAAUUCGGCGAAACCUAAGCGCCCGCCCGGGCGUAUGGCAACGCCGAGCCAAGCUUCGGCGCCUGCGCCGAUGUAGGUGUAGGGACUAGACGGCACCCACCUAAGGCUAACGCUAUGGUGAAGGCAUAGUCCAGGGAGGGGCGAAAGUCACACAAACCGG [A111U A120G A145U U176G],0.00581
2,GUGCCUUGCGCCGGGAAACCACGCAAGGGAUGGUGUCAAAUUCGGCGAAACCUAAGCGCCCGCCCGGGCGUAUGGCAACGCCGAGCCAAGCUUCGGCGCCUGCGCCGAUGUAGGUGUAGGGACUAGACGGCACCCACCUAAGGCUAACGCUAUGGUGAAGGCAUAGUCCAGGGAGAGGCGAAAGUCACACAAACCGG [A111U A120G A145U U176A],0.0396
3,GUGCCUUGCGCCGGGAAACCACGCAAGGGAUGGUGUCAAAUUCGGCGAAACCUAAGCGCCCGCCCGGGCGUAUGGCAACGCCGAGCCAAGCUUCGGCGCCUGCGCCGAUGUAGGUGUAGGGACUAGACGGCACCCACCUAAGGCUAACGCUAUGGUGAAGGCAUAGUCCAGGGAGCGGCGAAAGUCACACAAACCGG [A111U A120G A145U U176C],0.0483
4,GUGCCUUGCGCCGGGAAACCACGCAAGGGAUGGUGUCAAAUUCGGCGAAACCUAAGCGCCCGCCCGGGCGUAUGGCAACGCCGAGCCAAGCUUCGGCGCCUGCGCCGAUGUAGGUGUAGGGACUAGACGGCACCCACCUAAGGCUAACGUUAUGGUGAAGGCAUAGUCUAGGGAGGGGCGAAAGUCACACAAACCGG [A111U A120G A145U C150U C169U U176G],0.0055
5,GUGCCUUGCGCCGGGAAACCACGCAAGGGAUGGUGUCAAAUUCGGCGAAACCUAAGCGCCCGCCCGGGCGUAUGGCAACGCCGAGCCAAGCUUCGGCGCCUGCGCCGAUGUAGGUGUAGGGACUAGACGGCACCCACCUAAGGCUAACGUUAUGGUGAAGGCAUAGUCUAGGGAGCGGCGAAAGUCACACAAACCGG [A111U A120G A145U C150U C169U U176C],0.0395
6,GUGCCUUGCGCCGGGAAACCACGCAAGGGAUGGUGUCAAAUUCGGCGAAACCUAAGCGCCCGCCCGGGCGUAUGGCAACGCCGAGCCAAGCUUCGGCGCCUGCGCCGAUGUAGGUGUAGGGACUAGACGGCACCCACCUAAGGCUAACGUUAUGGUGAAGGCAUAGUCUAGGGAGAGGCGAAAGUCACACAAACCGG [A111U A120G A145U C150U C169U U176A],0.0396
7,GUGCCUUGCGCCGGGAAACCACGCAAGGGAUGGUGUCAAAUUCGGCGAAACCUAAGCGCCCGCCCGGGCGUAUGGCAACGCCGAGCCAAGCUUCGGCGCCUGCGCCGAUGUAGGUGUAGGGACUAGACGGCACCCACCUAAGGCUAACGUUAUGGUGAAGGCAUAGUCCAGGGAGAGGCGAAAGUCACACAAACCGG [A111U A120G A145U C150U U176A],0.0287
8,GUGCCUUGCGCCGGGAAACCACGCAAGGGAUGGUGUCAAAUUCGGCGAAACCUAAGCGCCCGCCCGGGCGUAUGGCAACGCCGAGCCAAGCUUCGGCGCCUGCGCCGAUGUAGGUGUAGGGACUAGACGGCACCCACCUAAGGCUAACGUUAUGGUGAAGGCAUAGUCCAGGGAGGGGCGAAAGUCACACAAACCGG [A111U A120G A145U C150U U176G],0.0059
9,GUGCCUUGCGCCGGGAAACCACGCAAGGGAUGGUGUCAAAUUCGGCGAAACCUAAGCGCCCGCCCGGGCGUAUGGCAACGCCGAGCCAAGCUUCGGCGCCUGCGCCGAUGUAGGUGUAGGGACUAGACGGCACCCACCUAAGGCUAACGUUAUGGUGAAGGCAUAGUCCAGGGAGCGGCGAAAGUCACACAAACCGG [A111U A120G A145U C150U U176C],0.0388
10,GUGCCUUGCGCCGGGAAACCACGCAAGGGAUGGUGUCAAAUUCGGCGAAACCUAAGCGCCCGCCCGGGCGUAUGGCAACGCCGAGCCAAGCUUCGGCGCCUGCGCCGAUGUAGGUGUAGGGACUAGACGGCACCCACCUAAGGCUAACGUUAUGGUGAAGGCAUAGUCGAGGGAGAGGCGAAAGUCACACAAACCGG [A111U A120G A145U C150U C169G U176A],0.0274
11,GUGCCUUGCGCCGGGAAACCACGCAAGGGAUGGUGUCAAAUUCGGCGAAACCUAAGCGCCCGCCCGGGCGUAUGGCAACGCCGAGCCAAGCUUCGGCGCCUGCGCCGAUGUAGGUGUAGGGACUAGACGGCACCCACCUAAGGCUAACGUUAUGGUGAAGGCAUAGUCGAGGGAGCGGCGAAAGUCACACAAACCGG [A111U A120G A145U C150U C169G U176C],0.0378
12,GUGCCUUGCGCCGGGAAACCACGCAAGGGAUGGUGUCAAAUUCGGCGAAACCUAAGCGCCCGCCCGGGCGUAUGGCAACGCCGAGCCAAGCUUCGGCGCCUGCGCCGAUGUAGGUGUAGGGACUAGACGGCACCCACCUAAGGCUAACGUUAUGGUGAAGGCAUAGUCGAGGGAGGGGCGAAAGUCACACAAACCGG [A111U A120G A145U C150U C169G U176G],0.00496
13,GUGCCUUGCGCCGGGAAACCACGCAAGGGAUGGUGUCAAAUUCGGCGAAACCUAAGCGCCCGCCCGGGCGUAUGGCAACGCCGAGCCAAGCUUCGGCGCCUGCGCCGAUGUAGGUGUAGGGACUAGACGGCACCCACCUAAGGCUAACGCUAUGGUGAAGGCAUAGUCUAGGGAGUGGCGAAAGUCACACAAACCGG [A111U A120G A145U C169U],0.164
14,GUGCCUUGCGCCGGGAAACCACGCAAGGGAUGGUGUCAAAUUCGGCGAAACCUAAGCGCCCGCCCGGGCGUAUGGCAACGCCGAGCCAAGCUUCGGCGCCUGCGCCGAUGUAGGUGUAGGGACUAGACGGCACCCACCUAAGGCUAACGCUAUGGUGAAGGCAUAGUCGAGGGAGUGGCGAAAGUCACACAAACCGG [A111U A120G A145U C169G],0.213
15,GUGCCUUGCGCCGGGAAACCACGCAAGGGAUGGUGUCAAAUUCGGCGAAACCUAAGCGCCCGCCCGGGCGUAUGGCAACGCCGAGCCAAGCUUCGGCGCCUGCGCCGAUGUAGGUGUAGGGACUAGACGGCACCCACCUAAGGCUAACGCUAUGGUGAAGGCAUAGUCAAGGGAGUGGCGAAAGUCACACAAACCGG [A111U A120G A145U C169A],0.117
